Patent publication US20090181025A1 (published 2009)
One block for each binder: values may come before it.

Assays:
[1] = target: T1, CD54 endogenous in bone marrow-derived mature dendritic cells (mouse, UniProt P13597 28-537); experiment: co-immunoprecipitation from mature dendritic cells (1% digitonin lysate): anti-CD54 IP, immunoblot with anti-FcRγ chain antibody
T1 construct: Control membrane protein in the co-immunoprecipitation; also called another cell membrane protein CD54
Description: Moreover, bone marrow-derived mature dendritic cells were solubilized in a cell lysis buffer containing 1% digitonin. Immunoprecipitation was carried out using rat IgG as a negative control, anti-mTARM antibody #21, an anti-CD54 antibody and an anti-FcRγ chain antibody, and immunoblot analysis was then carried out using an anti-FcRγ chain antibody.

[2] = target: T2, mouse TARM protein, isoform m1, expressed on B300.19 cells (mouse, UniProt B6A8R8 17-288); experiment: co-immunoprecipitation from B300.19 transfectants (1% digitonin lysate): anti-Flag IP, immunoblot with anti-mTARM #6
T2 construct: In the co-immunoprecipitation the cells were solubilized in 1% digitonin; also called mTARM; mTARM-expressing cells
T2 sequence: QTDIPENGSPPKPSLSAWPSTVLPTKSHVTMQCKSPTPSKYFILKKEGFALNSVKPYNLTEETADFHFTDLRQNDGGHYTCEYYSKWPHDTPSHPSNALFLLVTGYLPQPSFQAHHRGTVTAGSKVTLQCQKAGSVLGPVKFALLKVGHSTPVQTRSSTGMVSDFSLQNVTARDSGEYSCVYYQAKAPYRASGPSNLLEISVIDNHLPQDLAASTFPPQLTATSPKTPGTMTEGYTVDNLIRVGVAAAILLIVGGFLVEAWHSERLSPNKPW
Description: B300.19 transfectants were solubilized in a cell lysis buffer containing 1% digitonin (1% digtonin/50 mM Tris-HCl (pH 7.5)/150 mM NaCl/5 mM NaF/1 mM orthovanadate/Complete™ (Roche)). Immunoprecipitation was carried out using an anti-Flag antibody, and immunoblot analysis was then carried out using anti-mTARM antibody #6.

[3] = target: AP protein used as a negative control (human, UniProt P05187 23-511); experiment: FACS of AP protein on mTARM-L-expressing B300.19 cells, detected with anti-PLAP antibody
Chain of AP protein used as a negative control (P05187 23-511): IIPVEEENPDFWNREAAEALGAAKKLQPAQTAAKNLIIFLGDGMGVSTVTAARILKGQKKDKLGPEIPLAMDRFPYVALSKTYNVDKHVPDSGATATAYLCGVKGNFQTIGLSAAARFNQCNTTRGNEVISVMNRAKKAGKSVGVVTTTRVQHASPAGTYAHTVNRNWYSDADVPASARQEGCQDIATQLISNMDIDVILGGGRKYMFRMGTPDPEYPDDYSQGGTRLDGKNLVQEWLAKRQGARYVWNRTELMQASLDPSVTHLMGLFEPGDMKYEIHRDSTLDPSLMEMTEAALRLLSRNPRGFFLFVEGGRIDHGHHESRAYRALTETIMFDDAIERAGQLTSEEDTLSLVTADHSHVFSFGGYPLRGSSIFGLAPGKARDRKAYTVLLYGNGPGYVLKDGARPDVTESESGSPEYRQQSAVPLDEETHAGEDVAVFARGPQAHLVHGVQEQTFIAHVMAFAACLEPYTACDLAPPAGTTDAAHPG

T1 sequence (P13597 28-537 limits assumed): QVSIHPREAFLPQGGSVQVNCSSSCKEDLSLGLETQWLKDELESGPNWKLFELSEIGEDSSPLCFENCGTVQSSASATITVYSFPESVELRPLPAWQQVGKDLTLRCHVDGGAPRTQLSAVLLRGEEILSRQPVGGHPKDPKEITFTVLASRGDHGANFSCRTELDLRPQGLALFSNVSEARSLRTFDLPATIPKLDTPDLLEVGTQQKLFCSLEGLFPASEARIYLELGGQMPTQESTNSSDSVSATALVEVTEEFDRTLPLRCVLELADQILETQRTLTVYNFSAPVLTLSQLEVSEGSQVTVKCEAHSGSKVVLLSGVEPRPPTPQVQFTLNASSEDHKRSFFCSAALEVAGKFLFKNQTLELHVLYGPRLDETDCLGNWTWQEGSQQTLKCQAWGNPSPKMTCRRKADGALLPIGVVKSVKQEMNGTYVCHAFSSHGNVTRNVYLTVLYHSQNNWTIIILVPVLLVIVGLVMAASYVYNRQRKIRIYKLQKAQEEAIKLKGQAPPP

B1: FcRγ chain endogenous in bone marrow-derived mature dendritic cells (other, mouse, UniProt P20491 19-86, looked up)
chain: LGEPQLCYILDAVLFLYGIVLTLLYCRLKIQVRKAAIASREKADAVYTGLNTRSQETYETLKHEKPPQ
notes: Native protein from lysate of mouse dendritic cells
binding result [1]: no binding

B4: mouse TARM-L (TARM ligand) expressed on B300.19 cells (ligand)
chain: LEISADAHVRGYVGEKIKLKCTFKSSSDVTDKLTIDWTYRPPSSSRTESIFHYQSFQYPTTAGTFRDRISWAGNVYKGDASISISNPTLKDNGTFSCAVKNPPDVYHNIPLTELTVTERGFGTMLSSVALLSILVFVPSAVVVILLLVRMGRKATGVQKRSRSGYKKSSIEVSDDTDQEDSNDCMTRLCVRCAECLDSDYEEEAY
notes: also called mTARM-L; mTARM-L candidate
binding result [3]: no binding (tested: 30 µg/ml (method of Example 5))

Now from value to binder:

binding result [2]: no binding
B2: Flag tagged DAP12 expressed in B300.19 transfectants (other, UniProt O54885 22-114, looked up)
chain: LSPVQAQSDTFPRCDCSSVSPGVLAGIVLGDLVLTLLIALAVYSLGRLVSRGQGTAEGTRKQHIAETESPYQELQGQRPEVYSDLNTQRQYYR
notes: GenBank NM-011662 is printed; The fragment limits are set only by the primers; not shown: N-terminal Flag tag from vector pMXII IRES-Puro

binding result [2]: no binding
B3: Flag tagged DAP10 expressed in B300.19 transfectants (other, UniProt Q9QUJ0 18-79, looked up)
chain: SQTSAGSCSGCGTLSLPLLAGLVAADAVMSLLIVGVVFVCMRPHGRPAQEDGRVYINMPGRG
notes: GenBank AF072846 is printed; The fragment limits are set only by the primers; not shown: N-terminal Flag tag from vector pMXII IRES-Puro
